Laboratory results published in the supplement of paper PMC9170038.

Test system: K4 kissing-loop RNA reporter
Assay: apparent KD of K4 kissing-loop reporter; higher = weaker reporter binding
Settings: Eterna round: R107
Description: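 RNA-MaP round R107: designed RNA switches with theophylline, tryptophan, arginine or FMN aptamers are transcribed on-chip within common flanks. They are titrated with a labelled K4 kissing-loop RNA reporter in RNA-MaP buffer (100 mM Tris pH 7.5, 80 mM KCl, 4 mM MgCl2), without ligand or with the indicated ligand. Median apparent KD per design.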

[1] = input ligand: theophylline 20 uM
[2] = input ligand: tryptophan 2.4 mM
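Also: bound reporter read as fluorescence of individual clusters on recovered sequencing chips by microscopy, with normalized cluster intensities fitted with a binding model.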

| Sequence | apparent KD of K4 kissing-loop reporter (input ligand: FMN 200 uM) | apparent KD of K4 kissing-loop reporter (input ligand: arginine 13.2 mM) | apparent KD of K4 kissing-loop reporter (input ligand: none) | apparent KD of K4 kissing-loop reporter [1] | apparent KD of K4 kissing-loop reporter [2] |
| --- | --- | --- | --- | --- | --- |
| UGGAGUUGACGAAAAGUCAACUCCUGAGAUACCAGUGACGAAAGUCACCCUUGGCAGCUCACUGCCAGUGAUGUUGGAACUAAAG [#02 K4 Theophylline A Same State] | 308 nM | 158 nM | 256 nM | 452 nM | 216 nM |
| AAAAUAAACCAGUGAUGUUGGUAUCCGGAUACCAGCGAUAAUCAUCGCCCUUGGCAGCCGCGGACGUACAAAAUAAGUACGUCCU [MatMod 14 - Jieux - Same State - Theophylline A] | 208 nM | 135 nM | 175 nM | 268 nM | 182 nM |
| AGAGCGGUCGAAGGAUAUGAGACAACCAACGGUGAGUGAUGUUUGCCGAGUAAACCUCUAGUUGCGUCAGAAGGUCGGCUCAGUC [theeternabot_sameState_KL_FMN_B_25] | 595 nM | 460 nM | 633 nM | 625 nM | 520 nM |
| GUAGCACUUGAUAGUGAUGUUAUCAAGGACAAGGAUAUCAUCUCAAUGAGAAGGUGUCCUUGAUAACAGCUACGGGAAUAUCCCA [Omei KL FMN A Exc D v1] | 103 nM | 267 nM | 288 nM | 280 nM | 312 nM |
| UUUUAUUAAUACUUCUAGUGAUGUUAGAUACGAGGACCGGUACGGCCGCCACUCGCUUAUUGGUUUAUAUAUUUUAUAUUCUUUA [JR_SSTryptoA_Sub014] | 327 nM | 362 nM | 342 nM | 369 nM | 281 nM |
| AGUAGUUGGACGGCCGCCACUAGAACGGCUUUGCCAAAGGCAGAGCACUAGAGUGAUGUUCUAGCUAGGACCGGGUCCAACUACA [Omei KL Tryp B SS A v3] | 662 nM | 204 nM | 191 nM | 403 nM | 773 nM |
| UAGGGCCCUGGAGGAUAUGAGUCUAGUGAUGUUAGGCGGUCCAUGCGCGUGGCGCGUUAUGCCCUUUUAGAAGGCCAGGGCCCUA [#2 Exclusion - FMN B Attempt #17 (HarryS)] | 119 nM | 72.8 nM | 99 nM | 99.3 nM | 92.4 nM |
| AAUGUACAGGGAAGGAGCGCCGUCCAGUGAUGUUGGAGUUAAAUACCAGUGAUGUUGGUUAGGCAGGUAGGUCGCCCUAUAGUAU [#07 K4 Arginine B Exclusion] | 126 nM | 92.9 nM | 117 nM | 134 nM | 108 nM |
| AAUAAGUGUCAGCGAGUGAUGUUCGACGAUACCAGCCUCGAUAGAGGCCCUUGGCAGCGUAACGCAUGCCAAACUGGCACAAUAA [#SwitchBubble 7 #K4Early] | 500 nM | 497 nM | 557 nM | 393 nM | 441 nM |
| UGGUUAAGCAGUGAUGUUGCAAGUAAUGAUACCAGUUAAGAAGAGAACCCUUGGCAGCAUAAAGUGCGCUCUGAUGAGUGUGCUU [whbob_SS_Theo_A_w54] | 197 nM | 218 nM | 240 nM | 239 nM | 179 nM |
| UAUAUAGUGACGGCCGCCACUAUAUUAAUGUUUUUGUUAGAGUGAUGUUUUGAUUAAUAUUUUUAUAGGACCGGGUUAUAUGUUA [xzzxmullin] | 657 nM | 403 nM | 634 nM | 628 nM | 558 nM |
| AAAUUUUAAAGUGAUACCAGACAUCUCAAUUACAUUAAUAAAGCUAAGUGAUGUUUAGCAGUCCCUUGGCAGCACAAUUUAAUUA [JR_SSTheophyB_Sub011] | 272 nM | 334 nM | 334 nM | 447 nM | 281 nM |
| UAGUAUAAUCUGUCGUUUACAAUAUUUAGUCAGGAUAUCGUAUAUUCGAGAAGGGACACUAUCUAGUGAUGUUAGAUAUUUCUUU [JR_ExcFMNA_Sub013] | 46.8 nM | 78.2 nM | 54.9 nM | 71.4 nM | 52.8 nM |
| UGACUGGAUGGAAGGAGCGCUAAACUCCUAGUGAUGUUAGGGACACGAGGCAAAGCCUCGAAGCAGGUAGGUCGCCAUCUAGUCU [FiskerMod 22 - Jieux - Same State - Arginine B] | 184 nM | 148 nM | 174 nM | 182 nM | 167 nM |
| ACAGGAUCGAAAGAUCCUGAGCAGUCAAACCGAGGACCGGUACGGCCGCCACUCGGAGUGAUGUUCCGAAGACUGCAAAAUAAAA [#SwitchBubble 1] | 539 nM | 707 nM | 1120 nM | 406 nM | 334 nM |
| ACCCAAGCCCAUCGCGCAGUGAUGUUGUCGCGAGGACCGGUACGGCCGCCACUCGAUAGCAGUGGCAACGUCAUCAUAAUCGAUU [theeternabot_exclusion_KL_Trp_A_50] | 340 nM | 310 nM | 352 nM | 299 nM | 563 nM |
| CCAGGAUGAUGAGGAUGAUGAAUUACUGAAGGAGCGCAUAUGGUUGCAGGUAGGUCGCGGUGAAUAAGUAUAGUGAUGUUAUGCC [SSArgA.X] | 530 nM | 407 nM | 594 nM | 448 nM | 427 nM |
| UCUGUACCGGGAAGGAGCGUGAAUGAGAAUGGAUAUAGUGAUGUUAUGUAUACGAACGAAUCGCAGGUAGGUCGCCCGGAUCCCU [SSArgB.aA] | 674 nM | 380 nM | 653 nM | 474 nM | 467 nM |
| UUUCUUUUUUUGAUGUUUUUUGUAUAAUGGCAGGAUAUCGUAGAUGCGAGAAGGGCUUUUAUGCGUUAUGAGUGAUGUUUGUAGG [aaxazvmullin] | 324 nM | 270 nM | 320 nM | 272 nM | 256 nM |
| UUUUUGGAGAAUUAUAGUGAUGUUAUGAAGGAGGAUAUCUGGAGAUGGAGAAGGCCUAGUGGCUCAGGGAUGGAGGGUGGGUGGG [ExFMNA.Y] | 704 nM | 411 nM | 487 nM | 655 nM | 301 nM |
| GCGGCGGGCCAAGGAUAUAUUUUGGAGUGAUGUUGUUCAUUUAUUUGAGCUAGUGAUGUUGGUCGAAUAGAAGGUGGCCCGCCGC [whbob_Ex_FMNB__2th219] | 65.8 nM | 29.4 nM | 56.9 nM | 35.9 nM | 46 nM |

| Sequence | apparent KD of K4 kissing-loop reporter (input ligand: FMN 200 uM) | apparent KD of K4 kissing-loop reporter (input ligand: arginine 13.2 mM) | apparent KD of K4 kissing-loop reporter (input ligand: none) | apparent KD of K4 kissing-loop reporter [1] | apparent KD of K4 kissing-loop reporter [2] |
| --- | --- | --- | --- | --- | --- |
| UACAUUGCAGUCUUCUUCGUCCUAGAUGACUAGGAUAUCAGGAAACUGAGAAGGAGUCACUGCAGUGAUGUUGCAGCUAGGACGA [KL-SSFMN-A9] | 110 nM | 118 nM | 110 nM | 121 nM | 105 nM |
| AAUAAAAGAUGUUUAGGAAAGCAAAUGGAAGGAGCGUGCGAAAGCACAGGUAGGUCGCCAGUGAUGUUGGCACCUGAGCAUCAAA [#SwitchBubble 18 #K4Late] | 251 nM | 285 nM | 303 nM | 336 nM | 264 nM |
| AUGUCUGAUAGCAGUGAUGUUGCUUCGGAUACCAGACGAGAUCAUGUCCCUUGGCAGCUGACACGGCACGUGCUAGGUUAGAUGA [whbob_Ex_Theo_A_th72] | 121 nM | 98.3 nM | 115 nM | 116 nM | 113 nM |
| UUAGUCAGAUUAUUAUUAGCCUGCGAGACUAAGGAUAUCCGAAUUCGGAGAAGGUAGUGAUGUUACUUUGGCAGGCACUGACAUU [AK8 Exc FMN A] | 890 nM | 611 nM | 727 nM | 643 nM | 576 nM |
| CCAUCGCUAUUCGAUACCAGUCUACGUAGGAAACUACGUCUGCAAAGGAGUGAUGUUCCAGACCCUUGGCAGCGAAUAGUGAUGG [Theophylline B K4 5] | 969 nM | 689 nM | 792 nM | 589 nM | 900 nM |
| GUAGCACUUGACAGUGAUGUUGUCAAGGACAAGGAUAUCAUCUCAAUGAGAAGGUGUCCUUGAUAACAGCUACGGGAAUAUCCCA [Omei KL FMN A Exc D v3] | 312 nM | 108 nM | 136 nM | 120 nM | 123 nM |
| AAAUCUUUCAGAAGGAGCGUGGAUUAUUCAUAUAUAUUUAUUACGAGUGAUGUUCGUAAUUCACAGGUAGGUCGCUGUUCAAUAA [JR_ExcArginiB_Sub005] | 117 nM | 116 nM | 113 nM | 116 nM | 102 nM |
| UGUUUUUACUGAAGGAGCGGCAAUUGAUACGUAGAUAUAGUGAUGUUAUAUAAGAUAGAGAGCCAGGUAGGUCGCAGAGUGUAUC [ExArgB.aB] | 217 nM | 188 nM | 207 nM | 172 nM | 213 nM |
| AUUAAUUUCAGAGGAUAUCGUUAUUUUAUUUAAUUUAUUCAUUUAUGCAGUGAUGUUGCUAUUAUUCGAGAAGGCUGAUUUAUAA [JR_ExcFMNB_Sub006] | 82.1 nM | 83.5 nM | 34 nM | 70.4 nM | 35.3 nM |
| UGAUACCAGGCGGCCGCCACUCCUACAGGUCAAAGACCUGUAAAACUGGUUUUUUAGUGAUGUUGGAGGACCGGGCCUGGUAUCU [FiskerMod 28 - Jieux - Exclusion - Tryptophan B] | 181 nM | 108 nM | 178 nM | 183 nM | 177 nM |
| GAUUCUGUUCGAAAGAACGGAAUCACGGAAGGAGCGAGAGAAAUCUCAGGUAGGUCGCCGAAUUUUAGAUAGUGAUGUUAUCAUU [Arginine A K4 1] | 820 nM | 724 nM | 1080 nM | 856 nM | 711 nM |
| AUGGUUGUCGUAGGAUAUGUAGGUAAUUCCUAUAGCAGUGAUGUUGCUAAUAUCUUGGAAGAAGGAACAGAAGGACGAUAACCAC [KL-SSFMN-B1 #analogue] | 123 nM | 109 nM | 124 nM | 109 nM | 106 nM |
| UUACUACCCAGUGAUGUUGGGUAGCGGCGGCGAGGACCGGUACGGCCGCCACUCGGCGCACGGGAGUGAUGUUCCUACCGUUAGG [Same state Tryptophan A GF 8] | 514 nM | 455 nM | 604 nM | 747 nM | 294 nM |
| UGGUGCCAUUGGCGGGUAGAUAGUGGUGGCAAGGAUAUGUGAGCGAACAGAAGGUGCAUCAAGUUCAGUGAUGUUGGGCUCGAUU [theeternabot_sameState_KL_FMN_A_20] | 264 nM | 184 nM | 275 nM | 254 nM | 234 nM |
| GCGUAGAUUAGCAGUGAUGUUGCUACGGAAGGAGCGCGUGAAAACGCAGGUAGGUCGCCGACAAAAUUAAUUUUAAUGUCUGCGC [KL-SSArg-A6] | 469 nM | 448 nM | 596 nM | 423 nM | 365 nM |
| GGAGUUACCUGGGAUACCAGUCGGAGUCUCAGAGCUCGGAGUGAUGUUCUGGGAUGUUUCGGCCCUUGGCAGCUCUGGGACUCCU [#2 Exclusion - Theophylline B Attempt #17 (HarryS)] | 698 nM | 569 nM | 747 nM | 788 nM | 512 nM |
| GUCAUCAGAUCGCAAGAUCUGAUAGCCGAUACCAGCGCGAAGGUGCGCCCUUGGCAGCGGCACCGAGUGAUGUUCGGUCAGACGG [#2 Same State - Theophylline A Attempt #4 (HarryS)] | 658 nM | 796 nM | 776 nM | 440 nM | 594 nM |
| GUUAUGGACCUGGAUACCAGCUGGUACAAGGUCGGUCUACAUGAGUGAUGUUCAUGUGUCAGCCCUUGGCAGCCAGCAACCGGCA [KL-XTheo-B10] | 90.3 nM | 97.1 nM | 101 nM | 119 nM | 86.2 nM |
| AAACAUUGGUCGGAUACCAGCUGAUCGGAAACGAUCUUGCUGGAGUGAUGUUCCAAGUAAAGCCCUUGGCAGCCGACCGAUGAAA [MAT - Same State Theophlline B - Mod of Eli - D20] | 140 nM | 50.4 nM | 63.2 nM | 135 nM | 85.8 nM |
| UGUCAUGGAAACAUGAACGUUGAUGUUCGACGAGGACCGGUACGGCCGCCACUCGAGUAAUAGUCAGUGAUGUUGACUGGGCUAA [KL-SSTryp-A form1 sub2] | 146 nM | 216 nM | 219 nM | 250 nM | 140 nM |
| GCAAUCCCGGCGGCCGCCACUUUCAUACCAGUGAUGUUGAGUAGGAAAUGGAAUAUGCGCUGAAUAAGGACCGGGCCUAAGGAGA [theeternabot_exclusion_KL_Trp_B_47] | 270 nM | 216 nM | 251 nM | 255 nM | 210 nM |
